The data set can be described thus: soluble on expression in E. coli; label from the status in PepcDB or PDB records.
Take “MATSMIQRLFKQGTKIVGVGLNYASHAKELGNALPKDPIVFLKPTSSYLENGGTIEIPHPLDSLHHEVELAVVIGQKARDVPERLAMNYIGGYALALDMTARELQVSAMASGLPCTLAKGQDTFTPISSVLPKAMVLDPNNLELWLKVDDETRQKGWTKDMIFKVPYLISYISSVMTLFKGDVILTGTPEGIGPVKIGQKITAGITGLSEVQFDVGRRLKPLLR”: the “soluble on expression in E. coli” value is given as “soluble”.

For “SATSKLQALWNHPAGPKTIHFWAPTFKWGISIANIADFQKPPENISYLQQIAVTCTGMIWCRCSTIITPKNWNLFSVNVAMAATGIYQLTRKIKYDYVSEAEAAVEIEG”, the “soluble on expression in E. coli” value is reported as “soluble”.

“AHHHHHHGSEIYEGKAKKMIPLDEDKFIMEFKDDATAFDGVKKAKFVGKGWLNAQISAKLFKLLEDHGIKTHFIGVAGGNRLIVERLEMYPIEVVVRNVVAGSLKKRLPLPEGYELPEPIVELYYKSDELHDPMINYYHARILGISEEEIKEMERIALKVNEILKKFFREKGIILVDFKLEFGKNKKGEIVLADEISPDTCRFWDVETKKSLDKDVFRFDKGDLIEAYKELYKRLIGEEPQI”: the “soluble on expression in E. coli” value is on record as “not soluble”.

As for “SEEDRRLWMEAMDGREPVYNSNKDNQSEGTAQLDSIGFSIIKKCIHAVETRGINEQGLYRIVGVNSRVQKLLSILMDPKTATETETEICAEWEIKTITSALKTYLRMLPGPLMMYQFQRSFIKAAKLENQESRVSEIHSLVHRLPEKNRQMLHLLMNHLAKVADNHKQNLMTVANLGVVFGPTLLRPQEETVAAIMDIKFQNIVIEILIENHEKIFNTVPETPPSNSQLLL”, the “soluble on expression in E. coli” value was “soluble”.

As for “MHHFSAGRSNSIGLRQSVSDKGIEIVNLLAPKVEMLGFDLLGAEYLLVPSGAILRLYIDIPFAMQPECMVSIDDCERVSREVSAYLDLEEPISGNYTLEVSSPGLDRRLFTLEQFARHHNHLVKVGLKLQQHGSRRLQGKIVRVEQVGGFVVLLVNGVELAVDFNNIDKARIVPDWSALGLAPLEKSKHDTKKMSQGSKKPSNESAARQAVRGVIR”, the “soluble on expression in E. coli” value is listed as “not soluble”.

On to “MGSDKIHHHHHHMSLLALFSLFGCDNAANTATICKNNPELCDDLHRDSWCRYERADLIQKRYTLKNTPSPTGKQIYQHLINLENYSKCIELAAGVQHIMHPERTNDRVRAFGISAQNLAQLRETTKDNPDLYLSYYHWIRLNDQAALSRVIKAQQAGSIKDLEILASLASYYQKSDLDKAKALYLQLLDSADPDSFNPDWLLGLASIYHQQNDLEKTYLFSKANVLMTRNTASDAKMNALINGNQQLAHFLDEQADTLVEHLKNGDYASSEIRAQLNTSS”, for which the “soluble on expression in E. coli” value is reported as “not soluble”.

Turning to “MGSDKIHHHHHHMIDVENILEKMKPNQKINYDWVMQQMVKQWQASDIRPKILMHVCCAPCSTYTLEYLSQWADVTIYFANSNIHPKDEYYRREYVTQKFVHDFNKNTGYSVQFLSAPYEPNEFFKIVHGLEEEPEGGDRCKVCYDFRLDKTAEKAVELGFDYFGSALTISPHKNSQTINTIGIDVQKIYDTQYLPSDLKKNKGYQRSVEMCKDYDIYRQCYCGCIFGAKDQGINLLQIKKDAKAFVSDKDGKEEFPNIRFTFNGKSM”, the “soluble on expression in E. coli” value is listed as “not soluble”.

On to “MEESIMSIKVDMSLDCKGLACPMPIVKTKKAIEGLAPGQVIEVKATDKGSTIDIKSWASKVGHQYIGTKHEGDVLVHYVRKANEHEVNEVVKYPHTITNAELQSILSHGEESIVLDVREAAEFAFGHIPSAISVPLGELDSAVLDETKRIYVICRTGNRSDVACHMLKEKGYANVKNVIPGMLEWKGNVEK”, for which the “soluble on expression in E. coli” value is “not soluble”.

As to “MGSDKIHHHHHHMRLTSREKEIFEVLKKEPLISQEELARRFNITRSSIAVHISNLMKKGVILGKGYVFNEQVSVVVIGESYYYIKTSGPDNDCSINMGLGGFAVDTGRIFANFGLNVKLITIVGNDEEGTNIFNELQGKGVDIVNIFRHAKKRSCRKVFLDDKRILEENFSLQDYEKAIDAREWVVFNCEWLVVDTRFQELLCHKAIGKDEEKLPFFCTCRYLYSIEEIPSFLSRYDLLVLGVADSNIMDHYLSQALALSSNGVQSVILSDGNTRLFYFQKGNAHEFPLLPNQCFDSQEGLPALLAGIVYGLSSGYSLRQAVRIAVGTAASND”, the “soluble on expression in E. coli” value was “not soluble”.

As for “MGSDKIHHHHHHMDQGDDGDGQTANADYSIRIAAGIGAFTCDEWNGFAGTTRSDAENGYNPLVSFAFLSALEDSGCAVRRTGWQGHHVRLETAQGRLLGAVPCYLKSHSQGEYVFDHGWSDAFERAGGRYYPKLQCAVPFTPVTGPRLLVNRGEDPDAVKAGLAAGLKMVTDKLGVSSAHVTFAQESDVATLEAAGFLHRTDQQFHFFNEGFSTYDDFLATLASRKRKAMKKERREALADGITIDWLTGKDLTEKAWDDFFAFYMDTGSRKWGRPYLNRQFFSLIGERMADDILLVMARRNGRYVAGAINFIGSDALYGRNWGCIEDHPFLHFEVCYHQAIDFAIERKLKVVEAGAQGEHKLARGYRPVTMHSAHYISHPGLRNAVADYLQRERREVERMGEYLEEHTPFRKDLEE”, the “soluble on expression in E. coli” value is listed as “not soluble”.

As for “MGSDKIHHHHHHMGSYPDGKRIFVKMNTSPILPGLAREQIAPQLLWSRRLADGRDMCAQEWLTGKILTPYDMNRKQIVNILTRLHRSRPLMTQLSRLGYAMETPVDLLQSWQETAPDALRKNHFISEVMADLRQTIPGFREDHATIVHGDVRHSNWIETDSGLIYLVDWDSVRLTDRMFDVAHMLCHYISEHQWKEWLTYYGYKYNQTVLSKLYWYGQLSYLSQISKYYMNQDLENVNREIHGLRHFRDKYGKRR”, the “soluble on expression in E. coli” value was “not soluble”.

“MSELFSERIPPQSIEAEQAVLGAVFLDPAALVPASEILIPEDFYRAAHQKIFHAMLRVADRGEPVDLVTVTAELAASEQLEEIGGVSYLSELADAVPTAANVEYYARIVEEKSVLRRLIRTATSIAQDGYTREDEIDVLLDEADRKIMEVSQRKHSGAFKNIKDILVQTYDNIEMLHNRDGEITGIPTGFTELDRMTSGFQRSDLIIVAARPSVGKTAFALNIAQNVATKTNENVAIFSLEMSAQQLVMRMLCAEGNINAQNLRTGKLTPEDWGKLTMAMGSLSNAGIYIDDTPSIRVSDIRAKCRRLKQESGLGMIVIDYLQLIQGSGRSKENRQQEVSEISRSLKALARELEVPVIALSQLSRSVEQRQDKRPMMSDIRESGSIEQDADIVAFLYRDDYYNKDSENKNIIEIIIAKQRNGPVGTVQLAFIKEYNKFVNLERRFDEAQIPPGA”: the “soluble on expression in E. coli” value was “soluble”.

“MGSDKIHHHHHHVGNLLVNLAMVLRQPTGISTYALSLLPYLRSLQPTLLSDRLYEGFDHQLISSRLCSDRGRRARLARLYWTQTQVPKLYRRLGSRLLFSPAPEAPIDRHCRSVVMVHDLRPLQLPSHSWQTYYFRWVVPKIVAQASHVLCNSEATATDLCHFYQLPAQKITPIYLGYDRQHYQPWSGKTSNYFLHIGQQFPHKNLERLIRAFAQLPTDYQLYLAGSRHASETPRLEQLVHSLGLRDRVQFLRYVDYADLPRLIGEAIALVYPSLWEGFGLPILEAMACGTPVITAHGSSLSEVGGEAVLYVDPYRIEAIAAAMRDLIDDSNLRQSLRDRGFQQASRFSWEATGKETCQVLEKFL”: the “soluble on expression in E. coli” value is recorded as “not soluble”.

For the sequence “MAHHHHHHMILRTAGASNVYSVFAYPGTGKARDMLTTETADTSGSESGNLTNVRARHCAHFQFNKMCNLGESCNFIHSLVPYVQRLSMSSQGPLYNSIVTQRPLLMPSTSMAHFSRFPNGNNNNGVVSSYSMEFMQPSMLHVSPQTQQQQQQQKQQQKQQQKQLHQQPQHAMPPPPPTVSHLIPSPQPSEHLMYQSNMSMMSLPMYMSSPISSTWDGVRYGANYQ”, the “soluble on expression in E. coli” value is “not soluble”.

For “MGVKTFQFPFAEQLEKVAEQFPTFQILNEEGEVVNEEAMPELSDEQLKELMRRMVYTRILDQRSISLNRQGRLGFYAPTAGQEASQIASHFALEKEDFILPGYRDVPQIIWHGLPLYQAFLFSRGHFHGNQIPEGVNVLPPQIIIGAQYIQAAGVALGLKMRGKKAVAITYTGDGGTSQGDFYEGINFAGAFKAPAIFVVQNNRFAISTPVEKQTVAKTLAQKAVAAGIPGIQVDGMDPLAVYAAVKAARERAINGEGPTLIETLCFRYGPHTMSGDDPTRYRSKELENEWAKKDPLVRFRKFLEAKGLWSEEEENNVIEQAKEEIKEAIKKADETPKQKVTDLISIMFEELPFNLKEQYEIYKEKESK”, the “soluble on expression in E. coli” value is given as “soluble”.

Values taken from the DeepSol protein solubility set.
